Consider four molecules from patent publication US20190185532A1 (UNIVERSITY OF BIRMINGHAM, published 2019).

Assay [1] deals with T1, MMRN2^FL (full-length human MMRN2 with a polyhistidine (His) tag) (human, UniProt Q9H8L6 23-949).
T1 construct: mature; Used as lysate of transfected HEK293T cells; Forms large multimers under non-reduced conditions; also called MMRN2 full-length; MMRN2 FL with His tag; not shown: C-terminal BirA and His tags of vector pHL-Avitag3
T1 sequence (looked up): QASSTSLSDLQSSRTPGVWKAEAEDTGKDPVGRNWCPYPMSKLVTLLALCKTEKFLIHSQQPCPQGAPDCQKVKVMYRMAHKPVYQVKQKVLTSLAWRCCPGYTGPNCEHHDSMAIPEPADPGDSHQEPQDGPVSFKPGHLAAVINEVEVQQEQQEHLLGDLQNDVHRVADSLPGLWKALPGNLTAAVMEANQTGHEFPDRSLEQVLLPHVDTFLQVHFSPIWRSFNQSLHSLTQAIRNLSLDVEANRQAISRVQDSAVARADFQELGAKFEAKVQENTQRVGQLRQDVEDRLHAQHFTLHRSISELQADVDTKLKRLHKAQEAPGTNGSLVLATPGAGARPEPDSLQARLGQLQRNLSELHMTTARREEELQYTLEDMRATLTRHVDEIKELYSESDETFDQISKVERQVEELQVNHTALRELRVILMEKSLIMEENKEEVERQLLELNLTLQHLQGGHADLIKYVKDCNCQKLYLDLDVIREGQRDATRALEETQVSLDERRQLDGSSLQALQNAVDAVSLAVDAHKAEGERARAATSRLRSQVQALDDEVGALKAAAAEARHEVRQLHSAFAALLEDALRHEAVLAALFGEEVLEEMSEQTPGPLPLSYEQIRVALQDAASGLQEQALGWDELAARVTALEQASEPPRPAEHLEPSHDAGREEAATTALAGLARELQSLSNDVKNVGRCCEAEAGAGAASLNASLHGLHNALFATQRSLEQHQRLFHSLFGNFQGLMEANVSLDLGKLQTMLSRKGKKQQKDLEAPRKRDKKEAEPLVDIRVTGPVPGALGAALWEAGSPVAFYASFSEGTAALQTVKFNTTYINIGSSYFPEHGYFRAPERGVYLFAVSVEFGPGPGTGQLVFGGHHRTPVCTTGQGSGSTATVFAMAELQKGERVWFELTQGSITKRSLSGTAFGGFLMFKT
Description: far western blot, non-reduced; HEK293T lysates of GFP-tagged proteins probed with MMRN2^FL-His lysate, anti-His detection. An excerpt:
We previously identified MMRN2 as a binding partner of CLEC14A, one of the members of the C-type lectin domain (CTLD) group 14 family (4). To test whether any of the other CTLD group 14 family members also bind to MMRN2, we employed far western blotting using MMRN2 protein probe as a surrogate for a primary antibody in a standard western blot set up. The CTLD group 14 family members CLEC14A, CD93 and thrombomodulin were all constructed with a C-terminal green fluorescent protein (GFP) tag (FIG. 1A). Constructs were transfected into HEK293T cells and lysates were separated by SDS-PAGE under non-reducing conditions to keep disulphide bonds intact, then transferred to PVDF membranes and blotted using HEK293T lysates overexpressing full-length human MMRN2 with a polyhistidine (His) tag. MMRN2 protein binding was detected by staining with an anti-His tag antibody.
Whole cell protein lysates were made by incubating with lysis buffer (1% (v/v) NP40, 10 mM Tris pH7.5, 150 mM NaCl and 1 mM EDTA) and pelleting insoluble material. Standard protocols for western blotting were used. […] The epitope tag of each probed protein was detected with secondary antibody incubation (anti-His or anti-Fc HRP conjugate) and then tertiary anti-mouse HRP for the case of anti-His.

Assay [2] concerns the target T2, mouse CLEC14A-ECD-Fc (murine CLEC14A-ECD fused to a human Fc tag) (mouse; human, UniProt Q8VCP9 22-386).
T2 construct: extracellular domain; not shown: human Fc tag
T2 sequence (looked up): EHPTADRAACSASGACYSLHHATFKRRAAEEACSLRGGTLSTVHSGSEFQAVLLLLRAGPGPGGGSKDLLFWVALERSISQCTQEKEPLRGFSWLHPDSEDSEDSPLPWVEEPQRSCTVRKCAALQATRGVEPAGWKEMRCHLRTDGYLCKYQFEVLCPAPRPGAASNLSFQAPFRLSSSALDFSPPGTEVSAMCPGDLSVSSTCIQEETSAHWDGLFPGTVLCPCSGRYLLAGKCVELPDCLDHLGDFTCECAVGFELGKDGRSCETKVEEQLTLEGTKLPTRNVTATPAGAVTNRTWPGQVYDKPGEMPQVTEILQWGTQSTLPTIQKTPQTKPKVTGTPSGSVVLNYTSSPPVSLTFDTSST
Nature of the assay: far western blot; HEK293T lysate probed with mouse CLEC14A-ECD-Fc.

In assay [3] the target is T2, mouse CLEC14A-ECD-Fc (murine …). Nature of the assay: far western blot, reduced and non-reduced.
Assay [4] concerns the target T3, CLEC14A-ECD-Fc (human CLEC14A extracellular domain fused to an Fc tag) (human, UniProt Q86T13 22-396).
T3 construct: Expressed in HEK293T cells; also called hCLEC14A-ECD-Fc; C14A-Fc; not shown: human IgG Fc tag
T3 sequence: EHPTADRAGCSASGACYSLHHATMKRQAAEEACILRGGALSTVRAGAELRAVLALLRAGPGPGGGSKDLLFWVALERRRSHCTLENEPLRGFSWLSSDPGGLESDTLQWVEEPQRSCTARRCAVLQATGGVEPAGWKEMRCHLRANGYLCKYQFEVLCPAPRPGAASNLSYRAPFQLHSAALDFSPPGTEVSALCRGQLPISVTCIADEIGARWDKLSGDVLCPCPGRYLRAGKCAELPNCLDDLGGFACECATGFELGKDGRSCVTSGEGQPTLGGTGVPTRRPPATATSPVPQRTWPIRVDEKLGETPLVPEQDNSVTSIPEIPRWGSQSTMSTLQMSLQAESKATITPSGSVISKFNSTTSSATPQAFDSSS
Nature of the assay: far western blot; HEK293T lysates probed with CLEC14A-ECD-Fc. An excerpt: FIG. 2. […] (A) Diagrams of MMRN2 truncation mutants, showing the elastin microfibril interface (EMI) domain, coiled-coil (CC) domain and complement related C1q domain. The minimal CLEC14A binding fragment is highlighted in black. (B,C) HEK293T were transfected with truncation mutants. Lysates were far western blotted under reduced conditions with CLEC14A extracellular domain fused to an Fc tag (CLEC14A-ECD-Fc) and western blotted by use of His tag antibodies. (B) The smallest binding fragment was identified as MMRN2⁴⁸⁷⁻⁸²⁰, MMRN2^FL fails to bind CLEC14A-ECD-Fc. (C) The smallest MMRN2 fragment binding CLEC14A is MMRN2⁵³⁰⁻⁶²⁴. (D) MMRN2⁴⁹⁵⁻⁶⁷⁴ and MMRN2⁴⁹⁵⁻⁶⁰³ bind to streptavidin under reducing conditions after biotinylation. (E) Flow cytometry histograms of HEK293T transfected with GFP tagged CTLD group 14 family members and stained with biotinylated MMRN2⁴⁹⁵⁻⁶⁷⁴ (grey line), confirming binding to CLEC14A and CD93 but not thrombomodulin. Streptavidin-PE was used as a control for background binding (grey shaded).
Whole cell protein lysates were made by incubating with lysis buffer (1% (v/v) NP40, 10 mM Tris pH7.5, 150 mM NaCl and 1 mM EDTA) and pelleting insoluble material. […] The epitope tag of each probed protein was detected with secondary antibody incubation (anti-His or anti-Fc HRP conjugate) and then tertiary anti-mouse HRP for the case of anti-His.

B1: CLEC14A (human, wild type, C-terminal GFP tag, expressed in HEK293T) (receptor)
chain: EHPTADRAGCSASGACYSLHHATMKRQAAEEACILRGGALSTVRAGAELRAVLALLRAGPGPGGGSKDLLFWVALERRRSHCTLENEPLRGFSWLSSDPGGLESDTLQWVEEPQRSCTARRCAVLQATGGVEPAGWKEMRCHLRANGYLCKYQFEVLCPAPRPGAASNLSYRAPFQLHSAALDFSPPGTEVSALCRGQLPISVTCIADEIGARWDKLSGDVLCPCPGRYLRAGKCAELPNCLDDLGGFACECATGFELGKDGRSCVTSGEGQPTLGGTGVPTRRPPATATSPVPQRTWPIRVDEKLGETPLVPEQDNSVTSIPEIPRWGSQSTMSTLQMSLQAESKATITPSGSVISKFNSTTSSATPQAFDSSSAVVFIFVSTAVVVLVILTMTVLGLVKLCFHESPSSQPRKESMGPPGLESDPEPAALGSSSAHCTNNGVKVGDCDLRDRAEGALLAESPLGSSDA
notes: On cells in flow cytometry; as non-reduced HEK293T lysate in far western blots; also called CLEC14A wt; cell surface expressed CLEC14A; not shown: C-terminal green fluorescent protein (GFP) tag from vector pEGFP-N1
Regarding B1, the binding result in assay [1] is recorded as “binds”.

B2: CD93 (human, wild type, C-terminal GFP tag, expressed in HEK293T) (receptor)
chain: TGADTEAVVCVGTACYTAHSGKLSAAEAQNHCNQNGGNLATVKSKEEAQHVQRVLAQLLRREAALTARMSKFWIGLQREKGKCLDPSLPLKGFSWVGGGEDTPYSNWHKELRNSCISKRCVSLLLDLSQPLLPSRLPKWSEGPCGSPGSPGSNIEGFVCKFSFKGMCRPLALGGPGQVTYTTPFQTTSSSLEAVPFASAANVACGEGDKDETQSHYFLCKEKAPDVFDWGSSGPLCVSPKYGCNFNNGGCHQDCFEGGDGSFLCGCRPGFRLLDDLVTCASRNPCSSSPCRGGATCVLGPHGKNYTCRCPQGYQLDSSQLDCVDVDECQDSPCAQECVNTPGGFRCECWVGYEPGGPGEGACQDVDECALGRSPCAQGCTNTDGSFHCSCEEGYVLAGEDGTQCQDVDECVGPGGPLCDSLCFNTQGSFHCGCLPGWVLAPNGVSCTMGPVSLGPPSGPPDEEDKGEKEGSTVPRAATASPTRGPEGTPKATPTTSRPSLSSDAPITSAPLKMLAPSGSPGVWREPSIHHATAASGPQEPAGGDSSVATQNNDGTDGQKLLLFYILGTVVAILLLLALALGLLVYRKRRAKREEKKEKKPQNAADSYSWVPERAESRAMENQYSPTPGTDC
notes: On cells in flow cytometry; as non-reduced HEK293T lysate in far western blots; also called CD93 wild type (wt); cell surface expressed CD93; not shown: C-terminal green fluorescent protein (GFP) tag from vector pEGFP-N1
For B2, the binding result in assay [1] is “binds”.

B3: mouse MMRN2^495-678 (expressed in HEK293T, His tag) (ligand)
chain: QRVNSDVDVAPEGHRDVMHTLEETQVSLDEQHQLDGSSLQALQSTVDAMSSAMDAYRGEGERARAERARIRSQLRALDHAVEALKTAANGTRKEIRLLHGSFTALLEDALRHQAVLAALFGEEMIDEMSEEAPRPLPLDYEQIRLALQDAASGLQEQAIGWEDLATRVEALEKAAGGFVEQHPQ
notes: not shown: C-terminal BirA and His tags of vector pHL-Avitag3
For B3, the binding result in assay [2] is “binds”.

B4: MMRN2^495-674 (human, expressed in HEK293T, His tag) (ligand)
chain: QKLYLDLDVIREGQRDATRALEETQVSLDERRQLDGSSLQALQNAVDAVSLAVDAHKAEGERARAATSRLRSQVQALDDEVGALKAAAAEARHEVRQLHSAFAALLEDALRHEAVLAALFGEEVLEEMSEQTPGPLPLSYEQIRVALQDAASGLQEQALGWDELAARVTALEQASEPPRP
notes: as for B3
Take B4: the binding result in assay [3] and in assay [4] was “binds” each time.
